The chains are these.
B1: 224-Hu1 (antibody, V domains shown)
VH: QVQLVQSGAEVKKPGASVKVSCKASGFNNKDIYMHWVRQAPGQGLEWIGRIDPATGNTKHDPKFQDRVTMTSDTSTNTVYMELSSLRSEDTAVYYCARSPYGDFGAMDYWGQGTLVTVSS
VL: DIQMTQSPSSLSASVGDRVTITCTASSSVSSNYLHWYQQKPGKAPKLWIYSTSNLPSGVPSRFSGSGSGTDFTLTISSLQPEDFATYYCHQYHRSPWTFGQGTKVEIK
notes: Humanized form of #224; also called VH8 + VL6
B2: 224-Hu7 (antibody, V domains shown)
VH: QVQLVQSGSELKKPGASVKVSCKASGFNNKDIYMHWVRQAPGQGLEWMGRIDPATGNTKHDPKFQDKAVLSSDTSVSTAYLQISSLKAEDTAVYYCARSPYGDFGAMDYWGQGTLVTVSS
VL: B1 VL with W48L
notes: Humanized form of #224; also called VH9 + VL10
B3: 224-Hu3 (antibody, V domains shown)
VH: B2 VH
VL: B1 VL with W48L, P81A, F84A
notes: Humanized form of #224; also called VH9 + VL8
B4: 224-Hu4 (antibody, V domains shown)
VH: B2 VH
VL: B1 VL
notes: Humanized form of #224; also called VH9 + VL6
B5: 224-Hu2 (antibody, V domains shown)
VH: B2 VH
VL: B1 VL with K43S, A44S
notes: Humanized form of #224; also called VH9 + VL7
B6: 224-Hu5 (antibody, V domains shown)
VH: B2 VH
VL: B1 VL with W48L, F72Y, T73S
notes: Humanized form of #224; also called VH9 + VL9
B7: 224-Hu6 (antibody, V domains shown)
VH: B1 VH
VL: B1 VL with K43S, A44S
notes: Humanized form of #224; also called VH8 + VL7

Numbering of substitutions follows the chain as printed.

One experiment addresses T1, human TNFR2 on the surface of CHO-TNFR2 cells (human, UniProt P20333 23-461).
T1 construct: whole, on cells
T1 sequence (looked up): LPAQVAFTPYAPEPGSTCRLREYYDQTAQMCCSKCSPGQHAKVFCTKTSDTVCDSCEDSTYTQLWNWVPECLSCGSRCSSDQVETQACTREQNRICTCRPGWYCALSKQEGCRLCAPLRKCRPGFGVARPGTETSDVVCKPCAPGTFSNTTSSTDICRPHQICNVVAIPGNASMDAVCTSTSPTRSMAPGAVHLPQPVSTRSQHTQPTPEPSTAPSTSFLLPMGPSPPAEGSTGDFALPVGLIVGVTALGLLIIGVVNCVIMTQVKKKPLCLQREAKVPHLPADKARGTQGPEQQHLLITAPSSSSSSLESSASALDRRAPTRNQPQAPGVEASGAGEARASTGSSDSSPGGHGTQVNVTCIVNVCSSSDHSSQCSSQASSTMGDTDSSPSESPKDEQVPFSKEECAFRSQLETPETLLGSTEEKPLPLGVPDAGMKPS
The experiment in a line: flow cytometry on CHO-TNFR2 cells; AUC against 224-WT. As to the method:
(§1) The transfected full-length plasmid of human TNFR2 was purchased from Sino Biological (Cat #HG10417-UT, NCBI Ref Seq: NM_001066.2). The experiment was conducted at a cell density within 80%. The cell medium was discarded; the cells were rinsed with PBS, and digested with 1 ml trypsin for 2 minutes; the digestion was stopped with a Ham's F12 complete medium containing 10% FBS, and then a cell suspension was made. The cell suspension was counted, and then an appropriate amount of cell suspension was centrifuged at 350×g; the supernatant was discarded; a corresponding volume of blocking solution (10% FBS+PBS) at a density of 1×10⁷ cells/ml was added to resuspend the cells, and the mixture was incubated at 4° C. for 30 minutes. After the incubation, the mixture was centrifuged at 350×g to remove the supernatant, and the cells were resuspended in a staining buffer (2% FBS+PBS) to a density of 2×10⁶ cells/ml, and spread onto a 96-well plate, with 50 μl of cell suspension added to each well for later use. The antibody was diluted with PBS for 10-fold gradient dilution from the highest concentration of 20 μg/m (twice the concentration); the diluted antibody was added to the well containing 50 μl of cell suspension, and placed on a microplate shaker for shaking at 500 rpm for 1 minute, so that the antibody was fully mixed with the cells; the mixture was incubated at 4° C. for 1 h. After the incubation, the cells were washed twice with the staining buffer, with 100 μl per well, and centrifuged at 350-g for 5 minutes, and the supernatant was discarded. The PE goat anti-Human IgG Fc antibody (ebioscience, Cat #12-4998-82) was diluted 250-fold with the staining buffer, with a volume of 100 μl per well added to the washed cell wells; the mixture was mixed evenly, and stained at 4° C. for 30 minutes. After the staining, similarly, the cells were washed twice with the staining buffer; finally, the cells were resuspended in 200 μl of staining buffer; signals were detected by a flow cytometer (Thermo Attune NxT). The stronger the signal, the stronger the binding ability of an antibody to TNFR2. The binding curve of an antibody was drawn with antibody concentration as the abscissa and corresponding mean fluorescence intensity (MFI) fold as the ordinate, and fitted with four parameters (GraphPad Prism9) to calculate the EC50 value.
B1: the “% Relative activity (Test antibody/WT antibody)” value is 96.2%.
The same measure, in the same setting: next, B2: 91%; B3: 101%; B4: 93.1%.
Turning to B5, the “% Relative activity (Test antibody/WT antibody)” value worked out at 101%.
Still for that read-out and setting: to B6 belongs 88.9%.
On the same count and under the same terms, to B7 belongs 90.4%.

The next experiment has as its target T1, human TNFR2 on the surface of CHO-TNFR2 …. The experiment in a line: flow cytometry on CHO-TNFR2 cells; EC50 against 224-WT. As to the method:
as §1
On to B1, for which the “% Relative activity (WT antibody/test antibody)” value is 94.5%.
With B2, the “% Relative activity (WT antibody/test antibody)” value came out at 140%.
B3: the “% Relative activity (WT antibody/test antibody)” value came out at 116%.
The same measure, in the same setting: to B4 belongs 131%.
Regarding B5, the “% Relative activity (WT antibody/test antibody)” value was 119%.
Turning to B6, the “% Relative activity (WT antibody/test antibody)” value came to 112%.
Still for that read-out and setting: next, B7: 139%.

In the next experiment the target is T2, Cynomolgus TNFR2-His (Sino 90102-C08H) (cynomolgus monkey, UniProt A0A2K5VET2 132-366).
T2 construct: Bought protein; also called cynomolgus monkey TNFR2; recombinant cynomolgus monkey TNFR2 protein; not shown: His tag
T2 sequence: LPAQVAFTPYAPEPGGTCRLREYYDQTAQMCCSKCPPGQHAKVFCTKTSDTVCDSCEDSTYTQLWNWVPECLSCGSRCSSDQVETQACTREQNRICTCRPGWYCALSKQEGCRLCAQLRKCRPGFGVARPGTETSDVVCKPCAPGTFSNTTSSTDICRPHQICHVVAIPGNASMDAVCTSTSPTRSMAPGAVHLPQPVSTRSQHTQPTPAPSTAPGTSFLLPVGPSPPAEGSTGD
Briefly: ELISA, cynomolgus TNFR2-His coated; EC50 against 224-WT. How it is done: The test humanized antibody against TNFR2 (as described in Example 1, the antibody was comprised of variable regions linked to IgG-Fc; the WT chimeric antibody also adopted the IgG-Fc structure) was subjected to 3.33-fold gradient dilution, loaded with 100 μl/well, and incubated with shaking at room temperature for 1.5 hours. The plate was washed, and then a working solution of murine anti-human IgG Fc-HRP (diluted at 1:10000) was added, loaded with 100 μl/well, and incubated with shaking at room temperature for 1.0 hour. The plate was washed again, and then the substrate TMB of HRP was added to develop colour. A stop solution was added to stop the reaction, and then a microplate reader (MD 13) was used to read the absorbance value. The binding curve of an antibody was drawn with antibody concentration as the abscissa and corresponding OD value as the ordinate, and fitted with four parameters (GraphPad Prism9) to calculate the EC50 value. The smaller the EC50 value, the stronger the binding ability of an antibody to human/cynomolgus monkey TNFR2. The binding effect of a humanized antibody was normalized to its corresponding human-murine chimeric antibody WT (see SEQ ID NOs: 38-43 for the sequence). The higher the percentage value, the better the binding effect of the humanized antibody. The results of binding of an anti-TNFR2 antibody to a human TNFR2 protein are shown in FIG. 1 and Table 4, and the results of binding of an anti-TNFR2 antibody to cynomolgus monkey TNFR2 are shown in FIG. 2 and Table 4.
(In an ELISA, binding on a coated surface is turned into a signal by an enzyme label.)
Regarding B1, the “% Relative activity (WT antibody/test antibody)” value worked out at 105%.
The same measure, in the same setting: next, B2: 116%.
With B3, the “% Relative activity (WT antibody/test antibody)” value amounted to 108%.
For the molecule B4, the “% Relative activity (WT antibody/test antibody)” value is 108%.
In the case of B5, the “% Relative activity (WT antibody/test antibody)” value was determined as 109%.
Turning to B6, the “% Relative activity (WT antibody/test antibody)” value was 106%.
As for B7, the “% Relative activity (WT antibody/test antibody)” value is 104%.

(Values after patent US20240109974A1 (SHANDONG SIMCERE BIOPHARMACEUTICAL, published 2024).)
